Km, kcat and kcat/Km data for 1 protein are collected here from patent US11578315B2, “Truncated guinea pig L-asparaginase variants and methods of use” (THE BOARD OF TRUSTEES OF THE UNIVERSITY OF ILLINOIS, priority 2017, dated 2023).

Usually Km stands for the concentration of substrate that gives half-maximal velocity. What is called kcat is the maximal rate divided by the concentration of active sites. The kcat/Km is the second-order rate constant that governs catalysis at low substrate concentration.

Substrate in the data set: NC(=O)C[C@H](N)C(=O)O
Put plainly: L-asparaginase kinetics, NADH-dependent enzyme-coupled assay. As to conditions: other: pH 7.5, 37° C., 3 nM enzyme. The format is biochemical, E. coli. The method, then:
The catalytic activity of the clones was determined using a spectroscopic NADH-dependent enzyme-coupled assay (Fernandez, et al. (2013) Int. J. Clin. Exp. Med. 6:478-487; Hejazi, et al. (2002) Biochem. J. 364:129-136), which measures the production of L-aspartic acid (Asp) through the 1:1 oxidation of reduced NADH. The conversion of NADH to NAD was measured spectrophotometrically as a decrease in absorbance at 340 nm at 37° C. All measurements were taken in triplicate in a buffer containing 100 mM Tris pH 7.5, 0.4 mM α-ketoglutarate and 0.4 mM NADH with 50 nM (hASNase1, hN-gC); 10 nM (gpASNase1, gN-hC, 63-hC, 64-hC, 65-hC, SA-hC) or 3 nM (ansB) enzyme. Glutamic-oxalacetic transaminase (Sigma) and malic dehydrogenase (Sigma) were helper enzymes for the coupled enzymatic reactions; 5 and 1 unit were used, respectively. Data were fit to the Michaelis-Menten equation using SigmaPlot (Systat Software Inc). Due to the cooperative nature of hASNase1, this enzyme was analyzed using the Hill equation.

B1: E. coli L-asparaginase ansB (type II) (Escherichia coli K-12) (protein)
chain: LPNITILATGGTIAGGGDSATKSNYTVGKVGVENLVNAVPQLKDIANVKGEQVVNIGSQDMNDNVWLTLAKKINTDCDKTDGFVITHGTDTMEETAYFLDLTVKCDKPVVMVGAMRPSTSMSADGPFNLYNAVVTAADKASANRGVLVVMNDTVLDGRDVTKTNTTDVATFKSVNYGPLGYIHNGKIDYQRTPARKHTSDTPFDVSKLNELPKVGIVYNYANASDLPAKALVDAGYDGIVSAGVGNGNLYKSVFDTLATAAKTGTAVVRSSRVPTGATTQDAEVDDAKYGFVASGTLNPQKARVLLQLALTQTKDPQQIQQIFNQY
notes: made in house
Turning to B1, the Km was determined as 11 ± 1 µM, the kcat came out at 48 ± 1 s⁻¹ and the kcat/Km was 4.4e+06 M⁻¹ s⁻¹.
